Positions count from the first letter of the chain named.
B1: RUPA-63 (antibody, V domains shown)
VH: QVQLVQSGAEVKKTGASVKVSCKASGYTFTSHDIIWVRQAAGQGLEWMGWMNPNTGKKGYAQRFQGRITLTRNMSTGTAYMELGSLRSDDSAIYYCARGVGTYYGSEGWLDPWGQGTLVTVSS
VL: QSVLTQPPSASETPGQRVTISCSGSSSNVGSNTVNWYQQLPGTAPKLLMYNTNQRPSGVPDRFSGSKSGTSASLAISGLRSEDEADYYCAAWDDSLKRGVFGGGTRLTVL
notes: human IgG1; source: recombinant human IgG1, 293T (Protein A purified) or GenScript
B2: RUPA-104 (antibody, V domains shown)
VH: QVQLVQSGAEVKKPGASVKISCKTSGYTFTNYDINWVRQATGRGLEWMGWINPNTGKTGFAQKFQGRVTMTRSTSISTAYMELSSLRSEDTAVYYCARGVTTPDYFDSWGQGTLVTVSS
VL: DIQMTQSPSSVSASVGDRVSITCRASQDISGWLAWYQQKPGKAPKLLIYAASTLRTGVPSRFSGSGSGTDFTLTISSLQPEDFATYYCLQANSLPVTFGQGTRLEIT
notes: as for B1
B3: RUPA-108 (antibody, V domains shown)
VH: EVVLVESGGGLIQPGGSLRLSCAASGFTVSSSYMSWVRQAPGKGLEWVSVIYSGAGGGSIYYADSVKGRFTISRDNLKNTLYLQMNSLRVEDAAVYYCVRDSRGWGYFDDWGQGTLVTVSS
VL: EIILTQSPGTLSLSPGERATLSCRASQSIRTNYLAWYQRKPGQTPRLLIYGASSRATGIPDRFSGSGSGTDFTLTISRLEPEDFAEYFCQQYQNSPWTFGQGTIVEIK
notes: as for B1
B4: RUPA-113 (antibody, V domains shown)
VH: QVQLVQSGAELKKPGASVKVSCKASGYTFTSHDITWVRQAPGQGLEWMGWMNPNTGDRGYARNFQGRLTLTRDMSISTAFMVLSSLRPEDTAVYYCTRGVGTYHGAGGWFDPWGQGTLVSVSS
VL: B1 VL with V29I, T33I, N35S, M49I, T52N, K67Q, R80Q, A91T, K97E, R106K
notes: as for B1
B5: RUPA-151 (antibody, V domains shown)
VH: B1 VH with M51L, A61V, Q62E, R63K, I68V, T69M, G84S, Y104H
VL: B1 VL with R17G, T33A, T43R, E82A, R106K
notes: as for B1
B6: RUPA-144 (antibody, V domains shown)
VH: B1 VH with A61V, R63K, I68V, T69M, G84S, I93V
VL: B1 VL with E82D, A91T, R106K
notes: as for B1
B7: RUPA-91 (antibody, V domains shown)
VH: B1 VH with T14I, A61V, Q62E, R63K, I68V, G84S, S91T, I93V, Y104H, V119I
VL: B1 VL with T33S, L40V, M49I, D61A, R80H, A91T, D94G, R98K, R106K, L107V
notes: as for B1
B8: RUPA-92 (antibody, V domains shown)
VH: QVQLVQSGAEVKKPGASVKVSCKASGYTFTSHDIIWVRQATGQGLEWMGWMNPNTGDKGYAQKFQGRVTMTRSMSISTAYMELRSLRSEDTAVYYCARGVGTYRGSGGWFDPWGPGTLITVSS
VL: QSALTQPRSVSGSPGQSVTISCTGTSGDVGGFNYVSWYQQHPGKTPRLMLYHVTKRPSGVPDRFSGSKSGNTASLTISGLQADDEADYYCCSYAGNYIEIFGGGTKLTVL
notes: as for B1
B9: RUPA-149 (antibody, V domains shown)
VH: EVQLVESGGGVVQPGGSLRLSCAASGFTFSNFGMHWVRQAPGKGLEWVAKISYDGSNKYYADFVKGRFTISRDKATNTVHLQMNSLSAEDRGIYYCAKDKVFGVVANHHQYGLDVWGQGTTVTVSS
VL: DIQMTQSPASLSASVGDRVTITCRASQNIHLYLHWYQQKPGKAPELLIFTTNTLHRGVPSRFRGSGSGTEFALTISDLQPEDFATYYCQQSYTTPHFTFGQGTKLEIK
notes: as for B1
B10: RUPA-150 (antibody, V domains shown)
VH: QVQLQQWGAGLLKPSETLSLTCLVNGGSFSDYYWSWIRQPPGRGLEWIGDVNHSGTTNHRPSLQSRVTLSLDMSKNQFSLKLTSVTAADTAVYFCARRSSGYYRGSRYTGWFDPWGQGTLVTVSS
VL: EIVMTQSPATLSVSPGERATLSCRASQSVSSNLAWYQQKPGQTPRLLIYGSSTRATGIPARFSGSGSGTEFALTISSLQSEDFAVYYCQQYNNWPPPWTFGQGTKVEIK
notes: as for B1
B11: RUPA-153 (antibody, V domains shown)
VH: QVQLQESGPGLVKPSQTLSLTCTVSGSSVSSGGYYWSWIRQHPGKGLEWIGYLYYSGNTGNTFYNPSLKSRVTISADPSKNQFSLELSSVTAADTAMYYCARAVGVGRYFGYFPSWGLGTLVTVSS
VL: B10 VL
notes: as for B1
B12: RUPA-161 (antibody, V domains shown)
VH: QVQLVQSGAEVKKPGASVKVSCKASGYTFLYHDIIWMRQATGQGPEWMGWINPNTGNTGLAQKFQGRVSLTRNMSSGTAYMELRSLRSEDRAIYYCARGVGTYHGSGGWFDPWGQGTLVTVSS
VL: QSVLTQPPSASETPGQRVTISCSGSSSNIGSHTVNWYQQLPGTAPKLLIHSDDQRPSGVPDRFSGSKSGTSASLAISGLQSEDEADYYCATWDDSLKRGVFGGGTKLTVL
notes: as for B1
B13: RUPA-143 (antibody, V domains shown)
VH: QVQLVQSGAEVKKPGASVKVSCKASASTIANFAVSWVRQAPGQGLEWMGWISVYNVKTGDVKYAPKFQGRVTLTIDTATSTASMELRSLRFDDTAVYYCARANWYDNVWQEYFYGMDVWGQGTTVTVSS
VL: DIQMTQSPLTLSASVGDRVTITCRASQSVSRFLAWYQQKPGKAPKLLMYKVSNLESGVPSRFSGSGFGTQFTLTISSLQPDDFATYYCQHYDAYPWTFGQGTKVEIK
notes: as for B1
B14: RUPA-99 (antibody, V domains shown)
VH: QVHLVQSGAEVKKPGASVKVSCKASGYNFLYHDITWVRQATGQGLEWLGWMNPNTGDTGYAQNFQGRVTMTRDMSRSTAYMELDSLRSEDTAVYYCARGVGSYHGSGGWLDPWGPGTLVIVSS
VL: QSVLTQPPSVSETPGQRVTISCSGSSSNIGLNTVNWYQQLPGTAPNLLIHNDNQRPSGVPDRFSGSKSGTSASLAISGLHSEDEADYYCATWDDSLKRRVFGGGTKLTVL
notes: as for B1
B15: RUPA-105 (antibody, V domains shown)
VH: QVQLVQSGAEVKKPGASVKVSCTASGYNFLTHDISWVRQATGQGLEWMGWMNPNTGKKGYVQKFQGRVTMDRDMSKSTGYMELRSLTSEDTAVYYCVRGVGSYYGSGGWLDPWGQGTLVIVSS
VL: QSVLTQPPSASETPGQKVTISCSGSSSNIGSDTVSWYVQVPGTAPKLLIYNDNQRPSGVPDRFSGSKSGTSASLAISGLQSEDEADYYCATWDASLKRRVFGGGTTLTVL
notes: as for B1
B16: RUPA-147 (antibody, V domains shown)
VH: B15 VH with G79A, L110F, I120T
VL: B15 VL with V40L, G58R
notes: as for B1
B17: RUPA-148 (antibody, V domains shown)
VH: B15 VH with G79A, L110F, I120T
VL: B15 VL with V40L, S57P
notes: as for B1
B18: RUPA-90 (antibody, V domains shown)
VH: EVQLVESGGGLVQPGGSLRLSCAASGFMFSSYWMTWVRQAPGKGLEWVANIKEDGSEKYYVDSVKGRFTISRDNAENSLYLHMNSLRAADTAVYYCAREGDVFVAPSAVRKGGVYGMDVWGQGTTVTVSS
VL: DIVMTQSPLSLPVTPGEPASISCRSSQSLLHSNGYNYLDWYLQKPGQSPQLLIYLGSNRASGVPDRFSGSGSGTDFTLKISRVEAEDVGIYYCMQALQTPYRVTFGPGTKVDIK
notes: as for B1
B19: RUPA-111 (antibody, V domains shown)
VH: EVQLVESGGGLVQPGGSLRLSCVVSGFTFSRYSMYWVRQAPGKGPEWVSYIDSTGTTIYYADSVKGRFTISRDNAKSSLSLQMSSLRDDDRGVYYCARDGRKDSGSFLDHWGQGTLVIVSS
VL: DIQMTQSPSTLSASVGDRVTITCRASQSISEWLAWYQQKPGKAPRLLIYQASSLQSGVPSRFSGSGSGTEFTLTISSLQSDDFATYYCQQFDTYWTFGQGTKVEVR
notes: as for B1

Molecular target: T1, recombinant full-length Pfs48/45 (Plasmodium falciparum 3D7, UniProt Q8I6T1)
T1 sequence (Q8I6T1 28-428): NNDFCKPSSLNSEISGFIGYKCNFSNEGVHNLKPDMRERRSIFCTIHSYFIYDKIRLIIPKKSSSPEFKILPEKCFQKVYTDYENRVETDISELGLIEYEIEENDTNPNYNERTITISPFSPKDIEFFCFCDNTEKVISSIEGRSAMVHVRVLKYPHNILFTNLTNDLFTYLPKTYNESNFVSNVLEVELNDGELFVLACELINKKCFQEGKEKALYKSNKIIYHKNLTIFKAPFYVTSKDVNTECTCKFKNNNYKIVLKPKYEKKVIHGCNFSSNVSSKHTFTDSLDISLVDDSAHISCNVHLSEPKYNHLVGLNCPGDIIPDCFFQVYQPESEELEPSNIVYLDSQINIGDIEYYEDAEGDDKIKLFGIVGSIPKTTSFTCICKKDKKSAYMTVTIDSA
Experiment: ELISA
Conditions: both partners purified

Binder	binding result
B1	binds

Molecular target: T2, Pfs48/45 D2-3 (Plasmodium falciparum 3D7, UniProt Q8I6T1)
T2 sequence (Q8I6T1 184-428): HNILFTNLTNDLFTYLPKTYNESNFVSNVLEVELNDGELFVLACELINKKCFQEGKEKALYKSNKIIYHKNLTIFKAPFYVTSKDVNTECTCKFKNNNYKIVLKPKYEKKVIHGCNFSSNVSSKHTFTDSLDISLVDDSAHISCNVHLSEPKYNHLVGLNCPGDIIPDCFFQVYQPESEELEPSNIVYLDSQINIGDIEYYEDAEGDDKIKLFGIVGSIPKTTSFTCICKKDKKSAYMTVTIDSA
Experiment: ELISA
Conditions: both partners purified

Binder	binding result
B1	binds

Molecular target: T3, Pfs48/45 D1-2 (Plasmodium falciparum 3D7, UniProt Q8I6T1)
T3 sequence (Q8I6T1 28-289): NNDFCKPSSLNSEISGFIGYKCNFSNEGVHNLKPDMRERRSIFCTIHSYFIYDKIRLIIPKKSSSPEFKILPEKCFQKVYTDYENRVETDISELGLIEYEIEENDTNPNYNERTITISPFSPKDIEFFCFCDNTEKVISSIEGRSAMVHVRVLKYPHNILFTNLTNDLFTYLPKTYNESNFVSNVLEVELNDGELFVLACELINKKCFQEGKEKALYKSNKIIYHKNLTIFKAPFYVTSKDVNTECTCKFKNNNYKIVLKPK
Experiment: ELISA
Conditions: both partners purified

Binder	binding result
B1	binds

Molecular target: T1, recombinant full-length Pfs48/45
Experiment: ELISA
Conditions: both partners purified
Remark: another data set of the same source

Binder	binding result
B2	binds
B3	binds
B4	binds
B5	binds
B6	binds
B7	binds
B8	binds
B9	binds
B10	binds
B11	binds
B12	binds
B13	binds
B14	binds
B15	binds
B16	binds
B17	binds
B18	binds
B19	binds

Molecular target: T2, Pfs48/45 D2-3
Experiment: ELISA
Conditions: both partners purified
Remark: another data set of the same source

Binder	binding result
B2	binds
B3	binds
B4	binds
B5	binds
B6	binds
B7	binds
B8	binds
B9	binds
B10	binds
B11	binds
B12	binds
B13	binds
B14	binds
B15	binds
B16	binds
B17	binds
B18	binds
B19	binds

Molecular target: T3, Pfs48/45 D1-2
Experiment: ELISA
Conditions: both partners purified
Remark: another data set of the same source

Binder	binding result
B2	binds
B3	binds
B4	binds
B5	binds
B6	binds
B7	binds
B8	binds
B9	binds
B10	binds
B11	binds
B12	binds
B13	binds
B14	binds
B15	binds
B16	binds
B17	binds
B18	binds
B19	binds

— paper PMC9942873 (Immunity, 2023)
